# Assay results as given in patent EP4477673A1, “IMMUNOCONJUGATE AND USE THEREOF” (priority 2022, dated 2023).
# Positions count from the first letter of the chain named. Names may count otherwise.
# B1: PEGylated IL-2 mutant (PEG-IL-2v) (ligand)
# chain: APASSSTKKTQLQLEHLLLDLQMILQGISNYKNPKLTRMLTAKFYMPKKATELKHLQCLEEELKPLEEVLQGAQSKNFHLRPRDLISNINVIVLELKGSETTFMCEYADETATIVEFLNRWITFAQSIISTLT
# modifications: PEGylated (site not stated)
# B2: A-N88D-M08 (Fc fusion)
# chain (part 1 of 2): EVQLVESGGGLVQPGGSLRLSCAASGLTFSDYSMSWYRQAPGKGRELVAIISGSGVITHYVDSVKGRFTISRDNAKNTLYLQMRSLRAEDTAVYYCRAVSDWQDYWGQGTQVTVSS
# chain (part 2 of 2): GGGGSGGGGSGGGGSAPASSSTKKTQLQLEHLLLDLQMILQGISNYKNPKLTRMLTAKFYMPKKATELKHLQCLEEELKPLEEVLQGAQSKNFHLRPRDLISDINVIVLELKGSETTFMCEYADETATIVEFLNRWITFAQSIISTLT
# chain: B2 chain (part 1 of 2)
# notes: also called A-N88D-M8; not shown: IgG1 hinge (C220S) + Fc Knob chain as in A-N88D; IgG1 hinge (C220S) + Fc Hole chain as in A-N88D
# B3: A-N88D-M15 (Fc fusion)
# chain (part 1 of 2): B2 chain (part 1 of 2) with V56G, Q103E
# chain (part 2 of 2): B2 chain (part 2 of 2)
# chain: B2 chain (part 1 of 2) with V56G, Q103E
# notes: not shown: IgG1 hinge (C220S) + Fc Knob chain as in A-N88D; IgG1 hinge (C220S) + Fc Hole chain as in A-N88D
# What was measured:
# [1] = biological target: T1, IL-2Rβ/γ on M07e cells (human, UniProt P14784 27-551; P31785 23-369); assay: cell-based or functional assay
# T1 sequence (looked up) 1: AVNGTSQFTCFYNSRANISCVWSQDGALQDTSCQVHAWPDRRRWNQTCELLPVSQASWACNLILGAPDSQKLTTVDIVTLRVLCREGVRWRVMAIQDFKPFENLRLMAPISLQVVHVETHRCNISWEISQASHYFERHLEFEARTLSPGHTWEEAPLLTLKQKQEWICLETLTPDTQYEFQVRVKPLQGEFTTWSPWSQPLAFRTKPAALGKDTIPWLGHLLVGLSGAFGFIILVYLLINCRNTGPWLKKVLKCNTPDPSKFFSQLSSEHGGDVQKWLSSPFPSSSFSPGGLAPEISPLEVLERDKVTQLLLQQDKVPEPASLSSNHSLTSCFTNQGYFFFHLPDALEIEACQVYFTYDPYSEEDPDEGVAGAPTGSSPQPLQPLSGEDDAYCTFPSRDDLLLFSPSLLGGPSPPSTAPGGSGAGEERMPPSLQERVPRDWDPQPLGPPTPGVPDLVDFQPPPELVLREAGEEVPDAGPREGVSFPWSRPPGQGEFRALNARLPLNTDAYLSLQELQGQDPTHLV
# T1 sequence (looked up) 2: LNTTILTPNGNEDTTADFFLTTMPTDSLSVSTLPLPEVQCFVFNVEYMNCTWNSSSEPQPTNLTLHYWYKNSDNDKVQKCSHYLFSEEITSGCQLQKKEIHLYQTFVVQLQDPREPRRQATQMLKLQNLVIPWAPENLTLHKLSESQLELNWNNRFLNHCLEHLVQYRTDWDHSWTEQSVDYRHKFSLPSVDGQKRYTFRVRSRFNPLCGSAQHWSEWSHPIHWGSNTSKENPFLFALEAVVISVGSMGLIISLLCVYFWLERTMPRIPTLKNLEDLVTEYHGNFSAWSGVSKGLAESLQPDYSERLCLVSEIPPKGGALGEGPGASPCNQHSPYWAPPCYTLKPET
# [2] = biological target: T1, IL-2Rβ/γ on M07e cells; assay: cell-based or functional assay; remark: listed apart in the source
# [3] = biological target: T1, IL-2Rβ/γ on M07e cells; assay: cell-based or functional assay; remark: listed apart in the source
# [4] = biological target: human PD-1 (human, UniProt Q15116 25-288); assay: cell-based or functional assay
# Chain of human PD-1 (Q15116 25-288 limits assumed): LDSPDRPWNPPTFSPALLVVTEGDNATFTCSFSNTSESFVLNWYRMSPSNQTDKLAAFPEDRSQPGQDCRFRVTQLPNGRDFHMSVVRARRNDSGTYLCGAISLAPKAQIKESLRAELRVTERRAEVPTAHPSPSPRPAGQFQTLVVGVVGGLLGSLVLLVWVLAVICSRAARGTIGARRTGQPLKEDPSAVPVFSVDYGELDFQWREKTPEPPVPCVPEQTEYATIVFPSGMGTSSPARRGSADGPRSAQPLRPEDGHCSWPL
# [5] = biological target: Human PD-1 antigen protein (Sino Biological, 10377-H08H) (human, UniProt Q15116 25-167); assay: SPR Biacore 8K, fusion protein captured by anti-human IgG (Fc), human PD-1 as analyte
# Chain of Human PD-1 antigen protein (Sino Biological, 10377-H08H) (Q15116 25-167 limits assumed): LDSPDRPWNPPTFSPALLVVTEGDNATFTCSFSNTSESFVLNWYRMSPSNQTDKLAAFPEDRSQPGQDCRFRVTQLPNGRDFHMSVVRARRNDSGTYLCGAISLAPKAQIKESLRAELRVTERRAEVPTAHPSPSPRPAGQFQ
binder,measurement,setting,value
B1,"M07e proliferation, EC50",[1],20.9 nM
same,"M07e proliferation, Maximal fluorescence value (Max Lum)",[1],4.45e+06 Lum
same,"M07e-hPD1 proliferation, EC50",[1],13.3 nM
same,"M07e-hPD1 proliferation, Maximal fluorescence value (Max Lum)",[1],7.94e+06 Lum
same,M07e cell proliferation activity (%) at 0.46 nM,[2],0.7%
same,M07e cell proliferation activity (%) at 1.4 nM,[2],2.6%
same,M07e cell proliferation activity (%) at 4.1 nM,[2],11.2%
same,M07e cell proliferation activity (%) at 12 nM,[2],34.2%
same,M07e cell proliferation activity (%) at 37 nM,[2],68.2%
same,M07e cell proliferation activity (%) at 111 nM,[2],88.3%
same,M07e cell proliferation activity (%) at 333 nM,[2],102%
same,M07e cell proliferation activity (%) at 1000 nM,[2],89%
same,M07e-hPD-1 cell proliferation activity (%) at 0.0001 nM,[2],1.9%
same,M07e-hPD-1 cell proliferation activity (%) at 0.001 nM,[2],1.1%
same,M07e-hPD-1 cell proliferation activity (%) at 0.01 nM,[2],0.5%
same,M07e-hPD-1 cell proliferation activity (%) at 0.1 nM,[2],0.4%
same,M07e-hPD-1 cell proliferation activity (%) at 1 nM,[2],3.3%
same,M07e-hPD-1 cell proliferation activity (%) at 10 nM,[2],33.3%
same,M07e-hPD-1 cell proliferation activity (%) at 100 nM,[2],104%
same,M07e-hPD-1 cell proliferation activity (%) at 1000 nM,[2],100%
same,M07e-hPD-1 cell proliferation ratio (%) at 0.0001 nM,[3],-2.2%
same,M07e-hPD-1 cell proliferation ratio (%) at 0.001 nM,[3],-2.1%
same,M07e-hPD-1 cell proliferation ratio (%) at 0.01 nM,[3],-2.6%
same,M07e-hPD-1 cell proliferation ratio (%) at 0.1 nM,[3],-2.2%
same,M07e-hPD-1 cell proliferation ratio (%) at 1 nM,[3],-0.6%
same,M07e-hPD-1 cell proliferation ratio (%) at 10 nM,[3],24.4%
same,M07e-hPD-1 cell proliferation ratio (%) at 100 nM,[3],76.7%
same,M07e-hPD-1 cell proliferation ratio (%) at 1000 nM,[3],89.1%
B2,M07e-hPD-1 cell proliferation ratio (%) at 0.0001 nM,[4],3.8%
same,M07e-hPD-1 cell proliferation ratio (%) at 0.001 nM,[4],4.5%
same,M07e-hPD-1 cell proliferation ratio (%) at 0.01 nM,[4],11.9%
same,M07e-hPD-1 cell proliferation ratio (%) at 0.1 nM,[4],27.3%
same,M07e-hPD-1 cell proliferation ratio (%) at 1 nM,[4],36%
same,M07e-hPD-1 cell proliferation ratio (%) at 10 nM,[4],35.5%
same,M07e-hPD-1 cell proliferation ratio (%) at 100 nM,[4],35.5%
same,M07e-hPD-1 cell proliferation ratio (%) at 1000 nM,[4],44.2%
same,Kd,[5],12.3 nM
same,koff,[5],0.00264 s⁻¹
same,kon,[5],215000 M⁻¹ s⁻¹
B3,M07e-hPD-1 cell proliferation ratio (%) at 0.0001 nM,[4],8.9%
same,M07e-hPD-1 cell proliferation ratio (%) at 0.001 nM,[4],4.1%
same,M07e-hPD-1 cell proliferation ratio (%) at 0.01 nM,[4],7%
same,M07e-hPD-1 cell proliferation ratio (%) at 0.1 nM,[4],17%
same,M07e-hPD-1 cell proliferation ratio (%) at 1 nM,[4],32.9%
same,M07e-hPD-1 cell proliferation ratio (%) at 10 nM,[4],41.6%
same,M07e-hPD-1 cell proliferation ratio (%) at 100 nM,[4],54.9%
same,M07e-hPD-1 cell proliferation ratio (%) at 1000 nM,[4],47.7%
same,Kd,[5],29.3 nM
same,koff,[5],0.00706 s⁻¹
same,kon,[5],241000 M⁻¹ s⁻¹
